Measured values taken from the supplement of paper PMC7877785.
± gives the uncertainty stated by the source.

Experiment: self-splicing fitness, log relative to wild type (ln ratio); higher = more splicing; Tetrahymena group I intron in knt gene, E. coli kanamycin selection, DiMSum; sequences stand for … in CUCUCU…GGAGGGAAAAGUUAUCAGGCAUGCACCUGGUAGCUAGUCUUUAAACCAAUAGAUUGCAUCGGUUUAAAAGGCAAGACCGUCAAAUUGCGGGAAAGGGGUCAACAGCCGUUCAGUACCAAGUCUCAGGGGAAACUUUGAGAUGGCCUUGCAAAGGGUAUGGUAAUAAGCUGACGGACAUGGUCCUAACCACGCAGCCAAGUCCUAAGUCAACAGAUCUUCUGUUGAUAUGGAUGCAGUUCACAGACUAAAUGUCGGUCGGGGAAGAUGUAUUCUUCUCAUAAGAUAUAGUCGGACCUCUCCUUAAUGGGAGCUAGCGGAUGAAGUGAUGCAACACUGGAGCCGCUGGGAACUAAUUUGUAUGCGAAAGUAUAUUGAUUAGUUUUGGAGUACUCGUGGUCG
Method in brief: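 A randomised library covering all eight P1ex-region intron nucleotides was built with the intron in the knt kanamycin-resistance gene on pET-22b(+) and held in E. coli BL21(DE3). Cells were grown overnight at 37°C or 30°C on LB agar, with or without 25 μg/mL kanamycin, plus 100 μg/mL carbenicillin, 50 μM IPTG and 0.2% rhamnose, and pooled colonies were amplicon-sequenced on an Illumina HiSeq 2500. DiMSum fitness is the error-weighted combination of wild-type-normalised replicate fold changes, kanamycin versus none.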

Row | Sequence | self-splicing fitness (ln) (30 °C) | self-splicing fitness (ln) (37 °C)
1 | CACAAGCAAUAUUACGCCUC | -2.86 ± 0.2 | -1.95 ± 0.23
2 | CACAAGCAAUAUUACGCUGC | -5.23 ± 0.32 | -2.87 ± 0.21
3 | CACAAGCAAUAUUACGGAGA | -3.31 ± 0.17 | -2.65 ± 0.2
4 | CACAAGCAAUAUUACGGAUG | -2.59 ± 0.095 | -0.904 ± 0.087
5 | CACAAGCAAUAUUACGGCGG | -0.406 ± 0.042 | -0.181 ± 0.052
6 | CACAAGCAAUAUUACGGGAC | -3.48 ± 0.19 | -2.86 ± 0.2
7 | CACAAGCAAUAUUACGGGUU | -2.26 ± 0.068 | -1.52 ± 0.083
8 | CACAAGCAAUAUUACGUCAU | -3.45 ± 0.14 | -2.78 ± 0.15
9 | CACCAGCAAUAUUACGAAAC | – | -2.12 ± 0.31
10 | CACCAGCAAUAUUACGACAG | 0.251 ± 0.06 | 0.634 ± 0.083
11 | CACCAGCAAUAUUACGACCU | -3.45 ± 0.17 | -1.35 ± 0.17
12 | CACCAGCAAUAUUACGACGG | -0.253 ± 0.078 | 0.0217 ± 0.091
13 | CACCAGCAAUAUUACGAGCG | -0.154 ± 0.066 | 0.288 ± 0.086
14 | CACCAGCAAUAUUACGAGUG | -4.21 ± 0.18 | -2.76 ± 0.17
15 | CACCAGCAAUAUUACGCCGG | -2.23 ± 0.15 | -0.937 ± 0.14
16 | CACCAGCAAUAUUACGCGAC | -4.31 ± 0.2 | -2.89 ± 0.23
17 | CACCAGCAAUAUUACGCGGG | -3.44 ± 0.16 | -2.4 ± 0.15
18 | CACCAGCAAUAUUACGCGUA | -0.717 ± 0.061 | -0.165 ± 0.066
19 | CACCAGCAAUAUUACGCGUU | -2.15 ± 0.062 | -0.539 ± 0.067
20 | CACCAGCAAUAUUACGGACU | -2.98 ± 0.11 | -2 ± 0.11
21 | CACCAGCAAUAUUACGGAGC | -2.79 ± 0.13 | -1.58 ± 0.13
22 | CACCAGCAAUAUUACGGCUU | -1.91 ± 0.087 | -0.758 ± 0.093
23 | CACCAGCAAUAUUACGGGCG | -1.81 ± 0.053 | -0.295 ± 0.065
24 | CACCAGCAAUAUUACGGUUC | -2.02 ± 0.065 | -1.25 ± 0.085
25 | CACCAGCAAUAUUACGUCAA | -3.64 ± 0.42 | -2.31 ± 0.19

Row | Sequence | self-splicing fitness (ln) (30 °C) | self-splicing fitness (ln) (37 °C)
26 | CACCAGCAAUAUUACGUGUC | -3.8 ± 0.09 | -3.28 ± 0.11
27 | CACCAGCAAUAUUACGUUGU | -3.58 ± 0.14 | -2.29 ± 0.14
28 | CACGAGCAAUAUUACGAAGC | – | -1.41 ± 0.26
29 | CACGAGCAAUAUUACGCAUU | -4.65 ± 0.41 | -1.95 ± 0.3
30 | CACGAGCAAUAUUACGCCUC | -3.79 ± 0.26 | -1.37 ± 0.23
31 | CACGAGCAAUAUUACGCCUU | -2.3 ± 0.2 | -2.76 ± 0.4
32 | CACGAGCAAUAUUACGCGAA | -2.93 ± 0.28 | -2.1 ± 0.26
33 | CACGAGCAAUAUUACGGACU | -3.12 ± 0.22 | -1.44 ± 0.25
34 | CACGAGCAAUAUUACGGAUU | -3.86 ± 0.3 | -2.47 ± 0.26
35 | CACGAGCAAUAUUACGGUGA | -3.17 ± 0.23 | -2.98 ± 0.19
36 | CACGAGCAAUAUUACGUAAG | -3.62 ± 0.14 | -1.82 ± 0.11
37 | CACGAGCAAUAUUACGUAAU | -3.8 ± 0.39 | -2 ± 0.27
38 | CACGAGCAAUAUUACGUGCA | -3.55 ± 0.18 | -3.24 ± 0.23
39 | CACUAGCAAUAUUACGAACG | -0.448 ± 0.071 | 0.647 ± 0.11
40 | CACUAGCAAUAUUACGAAGG | -1.65 ± 0.1 | -0.781 ± 0.15
41 | CACUAGCAAUAUUACGACAC | -2.65 ± 0.22 | -1.69 ± 0.24
42 | CACUAGCAAUAUUACGACAU | -3.209 ± 0.019 | -1.97 ± 0.034
43 | CACUAGCAAUAUUACGACUC | -1.68 ± 0.21 | -2.63 ± 0.36
44 | CACUAGCAAUAUUACGAGAC | -3.77 ± 0.46 | –
45 | CACUAGCAAUAUUACGAUAC | -3.41 ± 0.28 | -2.81 ± 0.38
46 | CACUAGCAAUAUUACGAUAU | -4.57 ± 0.34 | -2.17 ± 0.2
47 | CACUAGCAAUAUUACGAUGA | -1.85 ± 0.16 | -1.01 ± 0.14
48 | CACUAGCAAUAUUACGCAAU | -1.48 ± 0.15 | -3.09 ± 0.35
49 | CACUAGCAAUAUUACGCAUA | -2.75 ± 0.2 | -2.83 ± 0.24
50 | CACUAGCAAUAUUACGCAUC | -4.23 ± 0.43 | -3.53 ± 0.37

Row | Sequence | self-splicing fitness (ln) (30 °C) | self-splicing fitness (ln) (37 °C)
51 | CACUAGCAAUAUUACGCCCC | -0.891 ± 0.38 | -0.252 ± 0.47
52 | CACUAGCAAUAUUACGCCGC | – | -2.58 ± 0.5
53 | CACUAGCAAUAUUACGCCUG | -0.103 ± 0.15 | -0.344 ± 0.14
54 | CACUAGCAAUAUUACGCUAG | -3.17 ± 0.26 | -2.41 ± 0.27
55 | CACUAGCAAUAUUACGCUAU | -3.92 ± 0.3 | -2.38 ± 0.23
56 | CACUAGCAAUAUUACGCUGA | -2.58 ± 0.23 | -1.51 ± 0.19
57 | CACUAGCAAUAUUACGCUUC | -3.74 ± 0.3 | -3.2 ± 0.4
58 | CACUAGCAAUAUUACGCUUU | -4.28 ± 0.42 | -1.57 ± 0.2
59 | CACUAGCAAUAUUACGGAGA | – | -2.39 ± 0.22
60 | CACUAGCAAUAUUACGGAUC | -1.79 ± 0.19 | –
61 | CACUAGCAAUAUUACGGCAG | -0.257 ± 0.049 | 0.189 ± 0.066
62 | CACUAGCAAUAUUACGGGCA | -1.91 ± 0.21 | -1.71 ± 0.21
63 | CACUAGCAAUAUUACGGGCU | -4.24 ± 0.39 | -3.52 ± 0.33
64 | CACUAGCAAUAUUACGGGUU | -2.05 ± 0.076 | -1.28 ± 0.095
65 | CACUAGCAAUAUUACGGUAG | -1.99 ± 0.1 | -0.969 ± 0.094
66 | CACUAGCAAUAUUACGGUGG | -2.3 ± 0.067 | -0.616 ± 0.075
67 | CACUAGCAAUAUUACGGUUG | -1.98 ± 0.087 | -1.38 ± 0.098
68 | CACUAGCAAUAUUACGUAAU | -3.08 ± 0.22 | -2.54 ± 0.2
69 | CACUAGCAAUAUUACGUAUG | -1.82 ± 0.061 | -0.818 ± 0.068
70 | CACUAGCAAUAUUACGUCCC | -2.5 ± 0.34 | -2.38 ± 0.33
71 | CACUAGCAAUAUUACGUGGA | -3.76 ± 0.32 | -2.44 ± 0.14
72 | CACUAGCAAUAUUACGUGGG | -3.99 ± 0.2 | -3.1 ± 0.22
73 | CACUAGCAAUAUUACGUGUA | -2 ± 0.11 | -1.47 ± 0.12
74 | CACUAGCAAUAUUACGUGUU | -4.69 ± 0.23 | -2.88 ± 0.16
75 | CACUAGCAAUAUUACGUUGG | -2.27 ± 0.11 | -2.03 ± 0.16

Row | Sequence | self-splicing fitness (ln) (30 °C) | self-splicing fitness (ln) (37 °C)
76 | CAGAAGCAAUAUUACGACAC | – | -2.1 ± 0.29
77 | CAGAAGCAAUAUUACGACUC | -0.803 ± 0.069 | -0.342 ± 0.095
78 | CAGAAGCAAUAUUACGAUGG | -0.534 ± 0.064 | -0.254 ± 0.078
79 | CAGAAGCAAUAUUACGCAGC | -3.43 ± 0.23 | -2.35 ± 0.24
80 | CAGAAGCAAUAUUACGCCGU | -3.06 ± 0.21 | -1.94 ± 0.23
81 | CAGAAGCAAUAUUACGCCUU | -1.78 ± 0.087 | -0.677 ± 0.11
82 | CAGAAGCAAUAUUACGCGCC | -2.83 ± 0.25 | -1.34 ± 0.18
83 | CAGAAGCAAUAUUACGCGGA | -3.15 ± 0.15 | -3.11 ± 0.17
84 | CAGAAGCAAUAUUACGGAUA | -2.48 ± 0.13 | -1.43 ± 0.11
85 | CAGAAGCAAUAUUACGGCCA | -1.5 ± 0.26 | -1.83 ± 0.21
86 | CAGAAGCAAUAUUACGGCUG | -2.29 ± 0.19 | -2.49 ± 0.23
87 | CAGAAGCAAUAUUACGGGCU | -3.96 ± 0.24 | -1.83 ± 0.16
88 | CAGAAGCAAUAUUACGGUAC | -4.59 ± 0.28 | -1.72 ± 0.21
89 | CAGAAGCAAUAUUACGUAAU | -3.4 ± 0.15 | -2.85 ± 0.21
90 | CAGAAGCAAUAUUACGUCCA | -1.68 ± 0.14 | -1.44 ± 0.21
91 | CAGAAGCAAUAUUACGUCUC | -1.79 ± 0.07 | -0.536 ± 0.084
92 | CAGAAGCAAUAUUACGUGCG | -0.578 ± 0.07 | 0.0457 ± 0.099
93 | CAGAAGCAAUAUUACGUUUU | -3.33 ± 0.14 | -3.58 ± 0.19
94 | CAGCAGCAAUAUUACGAAUA | -2.35 ± 0.13 | -1.9 ± 0.12
95 | CAGCAGCAAUAUUACGAAUG | -1.69 ± 0.061 | 0.012 ± 0.083
96 | CAGCAGCAAUAUUACGAGAA | – | -3.16 ± 0.37
97 | CAGCAGCAAUAUUACGAGGG | -3.15 ± 0.097 | -1.12 ± 0.093
